The text below walks through data of article PMC5551578 (The Journal of Experimental Medicine, 2017).

For this experiment, the target named is T1, H1N1 HA (A/New Caledonia/20/1999), wild type (Influenza A virus A/New …, UniProt Q6WG00, strain).
T1 construct: also called H1 wt; source: provided by D. Lingwood
Briefly: ELISA. On the technique in general: An ELISA detects its analyte on a solid surface through an enzyme-linked reagent.

B1: H5-Ab4 (antibody, V domains shown)
VH: EVQLVESGGGAVQPGRSLRLSCAVSGFTFSSYGMNWVRQAPGKGLEWVAVISYDGSNTYYADSVKGRFTISRDDSKNTLFLQMNSLRADDTAVYYCAKDFQLRLLRYFDWLSSPFDHWGQGTLVTVSS
VL: DIQLTQSPGTLSLSPGERATLSCRASQSIRSNFLAWYQQTPGQGPRLLIYGASSRATGIPDRFSGSGSGTDFTLTISGLEPEDFAVYYCQQYASSPQTFGQGTKVEIK
On to B1, for which the binding result is “binds”.

B2: H5-Ab2 (antibody, V domains shown)
VH: EVQLVQSGAEVKKPGSSVKVSCRSSGGPFRSNAISWVRQAPGQGLEWMGGIIAVFGTVEYAQKFQGRVTITADDSRSTVYMELRSLRSDDTAFYYCASAHGYHNYGSRGYFVSWGQGTLVTVSS
VL: DIVMTQSPGTLSLSPGERATLSCRASQSVSSNYLAWYQQKLGQPPRLLIYGASSRATGIPDRFSGSGSGTDFTLTISRLEPEDYAVYYCQQYGSSPHTFGQGTKVEIK
As for B2, the binding result was “binds”.
